Experimental data taken from patent US20080026077A1, “METHODS AND COMPOSITIONS OF GENE DELIVERY AGENTS FOR SYSTEMIC AND LOCAL THERAPY” (priority 2002, published 2008).
Like-named read-outs stand apart in the source and are kept apart here. Marks after values point to notes of the source that are not given here. No end group written: not given here.

Legend:
[1] = tibia, 24 hours after oral dosing, 4 mg/kg alendronate, with or without 4× molar BAC-A6
Description: Male Swiss CFW mice 25-28 g are fed or fasted overnight and subsequently lightly anesthetized with isoflurane by inhalation prior to oral dosing. Mice are administered 0.2 ml of the dosing solution. 24 hrs after dosing the mice are sacrificed and the tibia collected. […] The amount of 14CO2 is quantified by scintillation counting.

[2] = Oral gavage of zanamivir with various BAC analogs, plasma zanamivir; assay type: in vivo, Male Swiss CFW mice; details: fasted mice, 1 mg/kg zanamivir, BAC 1x equal molar; for Increase in concentration above H2O control / Mean Plasma Zanamivir Concentration: 30 min
Text: Plasma zanamivir concentrations are quantified by LC/MS/MS analysis.

[3] = Critical micellar concentration (CMC) of BACs, dye solubilization method; assay type: physicochemical; details: DPH dye solubilization, 50 mM Tris buffer pH 8.0
Description: Briefly, serial dilutions of a 7 mg/ml solution of the BACs are made in 50 mM Tris buffer pH 8.0. 10 ul of the dye 1,6-diphenyl-1,3,5-hexatriene (DPH, Sigma) (0.4 mM in methanol) is added to each ml. After overnight RT incubation in the dark, the absorbance of the samples at 356 nm is recorded. Linear regression of the data points above baseline was performed and the calculated CMC derived from the x intercept. The results for thirteen different BACs are shown in Table 1 based on a chendoxycholamide of the detailed motifs.

[4] = Octanol/buffer partitioning of carboxyfluorescein mixed with BAC analogs; assay type: physicochemical; details: 4 nmoles carboxyfluorescein, 281 nmoles BAC
Description: Partitioning of the fluorescent compound carboxyfluorescein by a BAC of Formula I into the octanol phase of an octanol/buffer portioning system for a series of BAC compounds is determined following standard methods. […] The mixture is vortexed for 5 mins and the incubated at room temperature for 3 hours. The solution is centrifuged to facilitate complete phase separation and a 100 μl of aqueous material is withdrawn for fluorescent measurement.

[5] = In situ intestinal absorption, single pass perfusion of radiolabeled BAC/pDNA; assay type: in vivo; details: complexes with membrane translocating BAC
Description: In order to examine the capability of the BAC/pDNA complex to bind and/or be absorbed onto the intestinal lumen cells the absorption of nicked-radiolabeled pDNA in a single pass perfusion experiment is tested. Using isolated ileal or jejunal segments radio-labeled BAC/pDNA mixtures mixture is mixed with HEPES buffer, pH 7.4, and perused at jejunal (filled symbols) and ileal (open symbols) sites. After 30 min of steady state, sample fractions are collected and the absorbed fraction of BAC/pDNA calculated. BAC/pDNA mixtures used are pDNA:BAC 1:27,000 neutrally charged and 1:54,000 molar ratios positively charged. Uncomplexed pDNA is used as a control.

Molecule	Increase in concentration above H2O control [2]	Calculated CMC concentration [3]	Mean Plasma Zanamivir Concentration [2]	other results
NCCCC(O)(P(=O)(O)O)P(=O)(O)O [Alendronate, alendronate]	–	–	–	Bone deposition of 14C-alendronate, mean dpm/mg bone ([1]; Fasted mice): 3.92 dpm/mg; Bone deposition of 14C-alendronate, mean dpm/mg bone ([1]; Fed mice): 9.51 dpm/mg
CC(=O)N[C@H]1[C@H]([C@H](O)[C@H](O)CO)OC(C(=O)O)=C[C@@H]1N=C(N)N [Zanamivir, zanamivir, reference compound]	1 fold	–	–	concentration at 30 min ([2]; male, Swiss CFW, mouse, plasma): 55 ng/mL
B7: chendoxycholamide bile acid conjugate, peptide Z = -RRRARRR (not fully specified (N-terminus); printed as -RRRARRR; also: chenodeoxycholamide bile acid conjugate, attachment not placed)	4 fold	>5.0* mM	228 ng/mL	–
C8: chendoxycholamide bile acid conjugate, peptide Z = -RRARRARR (not fully specified (N-terminus); printed as -RRARRARR; also: chenodeoxycholamide bile acid conjugate, attachment not placed)	4 fold	4.4 mM	223 ng/mL	–
Carboxyfluorescein	–	–	–	Fluorescence Units ([4]; aqueous phase after octanol/buffer partitioning): 78614; LogD ([4]; carboxyfluorescein, octanol/buffer): −1.638
D9: chendoxycholamide bile acid conjugate, peptide Z = -RARARARAR (not fully specified (N-terminus); printed as -RARARARAR; also: chenodeoxycholamide bile acid conjugate, attachment not placed)	–	1.7 mM	–	–
N-E9 motif of chenoxycholamide (RAWARAWAR; also: chenodeoxycholamide bile acid conjugate, site not given here)	22 fold	1.2 mM	1227 ng/mL	–
membrane translocating BAC: 12-residue membrane translocating peptide (SEQ ID NO: 23) coupled to bile acid by an ether linkage (AAVLLPVLLAAP; also: coupled to bile acid by an ether linkage, site not given here)	–	–	–	in situ intestinal absorption compared with FIG. 7 [5]: comparable results to those depicted in FIG. 7
